Data on seven sequences can be found in a protein production outcome set (Wang et al. 2014).

The data set is described as follows: label from the status in PepcDB records.
On to “MYDFKKINNLRGIERETLRVTDCGNLATSNHPDGLGHKLTNNSITVDFSENLLELITKPHDSIDKAIGELYQLSAFTLDNMHSDEIILNTSMPLSANDNDIQEADFGSSNSGRMKRVYRKGLSARYGKIMQIISGIHYNFSFDKDLISNIATNKQVSISDIYFDVLNNYFEFMWLLPYLFGASPICAKTSVKNKPDYLSVLDDKFYVGEYATSLRMSDLGYTSPAQKDLAISYDNVKAYVKDLIQATDDTFADYKRIGLYNSQGQRIQLNDGILQIENEYYSAIRPKQIAKRGERPACALYNRGVEYVEVRVLDVDPFEPVGISKDTALFVEVMLMTCLDKDAKKYHKDIIKQAKQNLTAVAIQGRNPQLKLKKLDDDSEILLKDYALELFDEIEAVAKKMPKEYLDAVEIQKRKVLDISQTPSAKIIELARQHGYKKFILDISRRVSQQFRSYELPAAIVAKLKDQAGQSVAAEKELVANDKISLDEYINRYYKSSKGCC”, for which the protein production result is “not failed”.
Regarding “MYDHILLASDGTEASTNAESHAISLAAEHGAALHVLYVVDEDVYTAYSGDEYVDESEGPEHGLEETGQETLARIQADAEASGVDATTTLKHGRPAESVIETADEADVDLLVLGTKRRPAEYRSLLGSITDKVLRLSERPAVVVKTEVEE”, the protein production result is recorded as “failed”.
As for “MYDLRPRTLTFLEVALPPTTDTTPIFSLLFFSQCSVFKGFSRSTSSAEAGGVLGGSTRVLICSVSSLVKIEDCKVKIFDKLSEKAEKVLEIGIGTGPNMRYYAARNSNVTLYGLDPNPKMKKYARKSATKAGLKPKNFRFKQGVGEAIPLKDNSVDAVVATLVLCSVSDVTQTLKEIKRVLRQGGVFIFLEHVAAKDGSFFKRLQKLLDPLQQRLADGCHLARNTRECILEAGFSGGVEVQTFSMYSFPWMTRPHIYGLAYN”, the protein production entry is “not failed”.
Regarding “MYEGEIAIGPVHSTMLEPHRLRLFIEDEIVKDAELTIGVNHRGVERLMEGLPVEKACILCEKICGICSHIHLWSAARVAEIGCNIEVPERANHIRIIVEELERLHSHTLLFGHAFEILGHETMSMRCFMLREPIMQVFFEISGSRVHYSCPIIGGIRPRCNISETQISHIHDKISQYEEGLTKFIERMLNDPMIISRVKDVGVMDRKTAAKFHAVGPTARGSNVKSDMRKWGWVPEYDPYDFDEILFDSGDVFARLAVRFYECLESVKIIRQALDALKDTSDKRIYNPNYELNEFKPINCYTEAQRGEQYYSYGLDDEGLVRQAKIRTPTATNLGAMEDIVKGYHVSDAELIIASCDPCFTCTDRLMVLKEPFKK”, the protein production result was “failed”.
Regarding “MYEHQTYEAILVRMLARVPETIDKREGSLIYDALAPGAAELAQAYAELVVNNNLSFADTASGEFLTRRAAEFGIKRKVATKAWRRGGFLDSNNALLNIPLGSRYSIGGLNYTAIEQISTGAYVLECETAGTAGNQQFGDLLPIAYVNSLARAELTEVLVPGEDEETDEALLSRYYETVNEPAFGGNMADYRQKVNAINGVGGTKVFPTWAGGGTVKCTIIASDWAKPSPELVNEVQSTMDPEENQGMGLGQAPIGHAVTIAGVDKVTVDVETTLTLAPGVTPGQVQSDVEAILDAYLLEQRKTWAAQTQIIIRMAQIDARMLTVQGVEDVTGTKLNGTEANFLLDEEEIPILGTVIINELEHHHHHH”, the protein production result was “failed”.
For “MYELTEDFKLRKITKYELDGVDEREDLLVIPPSSKAGPCGNGCLFCYLLQNPPEMIYRVARHDTLNDPTLEERIRYARKHYDLWIRVTDTSGNVKFDENRIKSLYEAGLDEIQISVHTTKKDVRIKLMRNRHAGKLIDLLPLVAKHFRTIADIILTPGFNVDDIGEIIEDLDSMGVHEVRLFPVGVTKYNRFEIRPLTKEE” the value was “failed”; for “MYEPPNQFHCLDADVWIEIPNRVIGVTGNCYVGRDYIPKNGKTRYDVKVFVKKIKKEQENPDTLIKDNDLELSKSKSDDIGTLIEKGVNLRNFKKYDEALQIFEKVTELEPSNAQAWHNKGIILGILKKYNEARQAFEKAMEIEPGKNRRDCSSRHLRSARNRTSERNQGSNVEQ”, “failed”.
